Test results reported in IntAct's records for PubMed 31515488.

B1: Protein sprouty homolog 1 (Homo sapiens), O43609 (parent)
chain: MDPQNQHGSGSSLVVIQQPSLDSRQRLDYEREIQPTAILSLDQIKAIRGSNEYTEGPSVVKRPAPRTAPRQEKHERTHEIIPINVNNNYEHRHTSHLGHAVLPSNARGPILSRSTSTGSAASSGSNSSASSEQGLLGRSPPTRPVPGHRSERAIRTQPKQLIVDDLKGSLKEDLTQHKFICEQCGKCKCGECTAPRTLPSCLACNRQCLCSAESMVEYGTCMCLVKGIFYHCSNDDEGDSYSDNPCSCSQSHCCSRYLCMGAMSLFLPCLLCYPPAKGCLKLCRRCYDWIHRPGCRCKNSNTVYCKLESCPSRGQGKPS
B2: EKC/KEOPS complex subunit TP53RK (Homo sapiens), Q96S44 (parent)
chain: MAAARATTPADGEEPAPEAEALAAARERSSRFLSGLELVKQGAEARVFRGRFQGRAAVIKHRFPKGYRHPALEARLGRRRTVQEARALLRCRRAGISAPVVFFVDYASNCLYMEEIEGSVTVRDYIQSTMETEKTPQGLSNLAKTIGQVLARMHDEDLIHGDLTTSNMLLKPPLEQLNIVLIDFGLSFISALPEDKGVDLYVLEKAFLSTHPNTETVFEAFLKSYSTSSKKARPVLKKLDEVRLRGRKRSMVG
B3: Tuftelin-interacting protein 11 (Homo sapiens), Q9UBB9 (parent)
chain: MSLSHLYRDGEGRIDDDDDERENFEITDWDLQNEFNPNRQRHWQTKEEATYGVWAERDSDDERPSFGGKRARDYSAPVNFISAGLKKGAAEEAELEDSDDEEKPVKQDDFPKDFGPRKLKTGGNFKPSQKGFAGGTKSFMDFGSWERHTKGIGQKLLQKMGYVPGRGLGKNAQGIINPIEAKQRKGKGAVGAYGSERTTQSMQDFPVVDSEEEAEEEFQKELSQWRKDPSGSKKKPKYSYKTVEELKAKGRISKKLTAPQKELSQVKVIDMTGREQKVYYSYSQISHKHNVPDDGLPLQSQQLPQSGKEAKAPGFALPELEHNLQLLIDLTEQEIIQNDRQLQYERDMVVNLFHELEKMTEVLDHEERVISNLSKVLEMVEECERRMQPDCSNPLTLDECARIFETLQDKYYEEYRMSDRVDLAVAIVYPLMKEYFKEWDPLKDCTYGTEIISKWKSLLENDQLLSHGGQDLSADAFHRLIWEVWMPFVRNIVTQWQPRNCDPMVDFLDSWVHIIPVWILDNILDQLIFPKLQKEVENWNPLTDTVPIHSWIHPWLPLMQARLEPLYSPIRSKLSSALQKWHPSDSSAKLILQPWKDVFTPGSWEAFMVKNIVPKLGMCLGELVINPHQQHMDAFYWVIDWEGMISVSSLVGLLEKHFFPKWLQVLCSWLSNSPNYEEITKWYLGWKSMFSDQVLAHPSVKDKFNEALDIMNRAVSSNVGAYMQPGARENIAYLTHTERRKDFQYEAMQERREAENMAQRGIGVAASSVPMNFKDLIETKAEEHNIVFMPVIGKRHEGKQLYTFGRIVIYIDRGVVFVQGEKTWVPTSLQSLIDMAK
partner: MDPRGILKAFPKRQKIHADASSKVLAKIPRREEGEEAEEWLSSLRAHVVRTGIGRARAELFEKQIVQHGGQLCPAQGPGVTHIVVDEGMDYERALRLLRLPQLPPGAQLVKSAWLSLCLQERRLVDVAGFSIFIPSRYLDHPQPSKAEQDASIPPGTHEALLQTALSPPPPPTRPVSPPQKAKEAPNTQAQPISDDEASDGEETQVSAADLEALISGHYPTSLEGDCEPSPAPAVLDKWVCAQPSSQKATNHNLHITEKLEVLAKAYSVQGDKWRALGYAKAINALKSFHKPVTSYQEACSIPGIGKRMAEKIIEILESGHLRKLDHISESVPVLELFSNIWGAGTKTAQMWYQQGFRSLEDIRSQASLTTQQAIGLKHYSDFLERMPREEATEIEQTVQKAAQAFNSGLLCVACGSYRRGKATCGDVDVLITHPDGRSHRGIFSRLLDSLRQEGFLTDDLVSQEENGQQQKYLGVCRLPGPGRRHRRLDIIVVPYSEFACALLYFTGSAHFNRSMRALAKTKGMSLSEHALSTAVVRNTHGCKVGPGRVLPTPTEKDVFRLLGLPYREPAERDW

Variants of: B1
Details: with nt2na_human NOTCH2NLA

effect of a mutation on the interaction | Variant
with no effect | R24H
with no effect | R296K

Variants of: B1
Details: with otx1_human OTX1, P32242
Chain of otx1_human OTX1, P32242 (P32242 whole entry): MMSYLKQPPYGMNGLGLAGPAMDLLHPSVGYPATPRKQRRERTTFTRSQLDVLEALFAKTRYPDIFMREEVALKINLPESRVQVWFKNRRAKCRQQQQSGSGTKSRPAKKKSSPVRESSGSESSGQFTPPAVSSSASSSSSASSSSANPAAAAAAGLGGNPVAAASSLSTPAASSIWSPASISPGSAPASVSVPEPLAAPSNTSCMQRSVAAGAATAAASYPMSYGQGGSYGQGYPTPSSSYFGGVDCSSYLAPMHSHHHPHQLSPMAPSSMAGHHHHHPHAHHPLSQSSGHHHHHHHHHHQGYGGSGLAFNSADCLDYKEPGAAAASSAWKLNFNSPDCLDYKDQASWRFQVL

effect of a mutation on the interaction | Variant
with no effect | R24H
with no effect | R296K

Variants of: B1
Details: with meox2_human MEOX2, P50222
Chain of meox2_human MEOX2, P50222 (P50222 whole entry): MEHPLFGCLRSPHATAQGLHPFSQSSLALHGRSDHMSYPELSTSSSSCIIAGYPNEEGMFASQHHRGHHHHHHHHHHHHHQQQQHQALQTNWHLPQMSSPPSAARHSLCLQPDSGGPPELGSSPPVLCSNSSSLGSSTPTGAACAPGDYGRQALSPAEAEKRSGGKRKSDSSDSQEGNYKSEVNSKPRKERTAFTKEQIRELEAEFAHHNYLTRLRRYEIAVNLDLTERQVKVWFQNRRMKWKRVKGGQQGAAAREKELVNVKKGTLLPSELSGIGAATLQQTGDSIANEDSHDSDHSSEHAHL

effect of a mutation on the interaction | Variant
with no effect | R24H
with no effect | R296K

Variants of: B1
Details: with kr101_human KRTAP10-1, P60331
Chain of kr101_human KRTAP10-1, P60331 (P60331 whole entry): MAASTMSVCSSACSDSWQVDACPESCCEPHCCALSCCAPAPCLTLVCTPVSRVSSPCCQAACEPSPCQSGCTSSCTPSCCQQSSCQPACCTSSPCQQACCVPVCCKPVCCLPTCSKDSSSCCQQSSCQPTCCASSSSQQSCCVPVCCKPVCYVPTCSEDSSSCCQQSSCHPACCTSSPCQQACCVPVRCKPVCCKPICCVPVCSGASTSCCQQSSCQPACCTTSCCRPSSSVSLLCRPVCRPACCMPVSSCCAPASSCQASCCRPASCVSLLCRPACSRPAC

effect of a mutation on the interaction | Variant
with no effect | R24H
with no effect | R296K

Variants of: B2
Details: with ccdb1_human CCNDBP1, O95273
Chain of ccdb1_human CCNDBP1, O95273 (O95273 whole entry): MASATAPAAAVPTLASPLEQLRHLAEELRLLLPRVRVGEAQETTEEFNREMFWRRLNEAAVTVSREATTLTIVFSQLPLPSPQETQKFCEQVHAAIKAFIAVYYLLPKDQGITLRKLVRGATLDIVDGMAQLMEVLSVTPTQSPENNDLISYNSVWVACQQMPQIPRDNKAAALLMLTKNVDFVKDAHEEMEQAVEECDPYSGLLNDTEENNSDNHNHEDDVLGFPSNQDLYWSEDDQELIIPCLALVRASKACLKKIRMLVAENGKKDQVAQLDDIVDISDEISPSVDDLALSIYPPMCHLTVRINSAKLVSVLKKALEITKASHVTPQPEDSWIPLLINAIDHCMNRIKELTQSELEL

effect of a mutation on the interaction | Variant
with no effect | T8M

Variants of: B3
Details: with dpoll_human POLL

effect of a mutation on the interaction | Variant
with no effect | R8Q
with no effect | S688L
